Literature values, collected in patent US20200276303A1, “Combination Therapies and Uses for Treatment of Demyelinating Disorders” (Biogen MA Inc., priority 2012, published 2020).

Conditions: for Disease activity measured by brain lesions (MRI scans) and relapse rate compared to placebo: Phase 2 clinical studies in relapse remitting MS

**Q.** With alemtuzumab: antibody against CD52 as the molecule, how does the “Phase III studies comparing with Rebif (high-dose subcutaneous interferon beta-1a)” value (patients with relapsing-remitting MS (RRMS)) read?
**A.** positive results

**Q.** Which “Disease activity measured by brain lesions (MRI scans) and relapse rate compared to placebo” value does the source give for ocrelizumab: antibody against CD20 here?
**A.** statistically significant reduction

**Q.** With rituximab: antibody against CD20 as the molecule, how does the “Disease activity measured by brain lesions (MRI scans) and relapse rate compared to placebo” value read?
**A.** statistically significant reduction

B1: Daclizumab: therapeutic humanized monoclonal antibody to the alpha subunit of the IL-2 receptor of T cells (antibody, chains of the INN, looked up, V domains shown)
VH: QVQLVQSGAEVKKPGSSVKVSCKASGYTFTSYRMHWVRQAPGQGLEWIGYINPSTGYTEYNQKFKDKATITADESTNTAYMELSSLRSEDTAVYYCARGGGVFDYWGQGTLVTVSS
VL: DIQMTQSPSTLSASVGDRVTITCSASSSISYMHWYQQKPGKAPKLLIYTTSNLASGVPARFSGSGSGTEFTLTISSLQPDDFATYYCHQRSTYPLTFGQGTKVEVK
**Q.** With B1 as the molecule, how does the “Reducing lesions and improving clinical scores” value (patients with multiple sclerosis not controlled with interferon) read?
**A.** effective
